Laboratory results as given in the supplement of paper PMC7877785.
± gives the uncertainty stated by the source.

Assay: self-splicing fitness, log relative to wild type (ln ratio); higher = more splicing; Tetrahymena group I intron in knt gene, E. coli kanamycin selection, DiMSum; sequences stand for … in CUCUCU…GGAGGGAAAAGUUAUCAGGCAUGCACCUGGUAGCUAGUCUUUAAACCAAUAGAUUGCAUCGGUUUAAAAGGCAAGACCGUCAAAUUGCGGGAAAGGGGUCAACAGCCGUUCAGUACCAAGUCUCAGGGGAAACUUUGAGAUGGCCUUGCAAAGGGUAUGGUAAUAAGCUGACGGACAUGGUCCUAACCACGCAGCCAAGUCCUAAGUCAACAGAUCUUCUGUUGAUAUGGAUGCAGUUCACAGACUAAAUGUCGGUCGGGGAAGAUGUAUUCUUCUCAUAAGAUAUAGUCGGACCUCUCCUUAAUGGGAGCUAGCGGAUGAAGUGAUGCAACACUGGAGCCGCUGGGAACUAAUUUGUAUGCGAAAGUAUAUUGAUUAGUUUUGGAGUACUCGUGGUCG
Summary of the method: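 Fitness was computed with DiMSum as the error-weighted combination of replicate fold changes, kanamycin versus none, each normalised to wild type. The library randomised all eight intron nucleotides of the P1ex region, with the intron placed in the knt kanamycin-resistance gene on pET-22b(+) in E. coli BL21(DE3). Six replicate transformations were grown overnight at 37°C or 30°C on LB agar with or without 25 μg/mL kanamycin, plus 100 μg/mL carbenicillin, 50 μM IPTG and 0.2% rhamnose. Pooled colonies were amplicon-sequenced on an Illumina HiSeq 2500.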

Sequence	self-splicing fitness (ln) (30 °C)	self-splicing fitness (ln) (37 °C)
ACUAAGCAAUAUUACGGUCA	-1.57 ± 0.077	-1.35 ± 0.094
GAUGAGCAAUAUUACGCUGG	-2.08 ± 0.18	-1.02 ± 0.3
AUUCAGCAAUAUUACGAGUU	-2.76 ± 0.16	-1.39 ± 0.13
GCAUAGCAAUAUUACGUAUU	-3.09 ± 0.16	-2.04 ± 0.17
CAUGAGCAAUAUUACGCUUC		-2.38 ± 0.32
GGCCAGCAAUAUUACGGCGU	-1.59 ± 0.098	-0.69 ± 0.12
AUUAAGCAAUAUUACGAAUG	-2.82 ± 0.2	-0.206 ± 0.2
CCUGAGCAAUAUUACGCCCA	-3.82 ± 0.47	-2.05 ± 0.34
UACCAGCAAUAUUACGUGUU	-3.72 ± 0.11	-1.38 ± 0.078
GGACAGCAAUAUUACGCCCG	-0.653 ± 0.24	-0.591 ± 0.28
UAGUAGCAAUAUUACGGCCG	0.0089 ± 0.17	-0.367 ± 0.23
GCCGAGCAAUAUUACGUACU	-2.15 ± 0.17	-1.23 ± 0.18
CCGAAGCAAUAUUACGGCGC	-4.16 ± 0.36	-2.63 ± 0.49
ACCCAGCAAUAUUACGCCAU	-4.24 ± 0.23	-1.88 ± 0.16
GAUCAGCAAUAUUACGGUGG	-1.36 ± 0.057	-0.762 ± 0.073
CGGUAGCAAUAUUACGGGCA	-1.75 ± 0.24	-0.528 ± 0.2
UAGGAGCAAUAUUACGUACU	-2.72 ± 0.31	-1.73 ± 0.32
ACCAAGCAAUAUUACGACAG	-1.81 ± 0.078	-1.82 ± 0.11
GGUGAGCAAUAUUACGAUAG	-0.576 ± 0.23	-2.81 ± 0.34
UGACAGCAAUAUUACGGACU	-0.289 ± 0.063	0.203 ± 0.078
GUUUAGCAAUAUUACGCACA	-0.867 ± 0.12	-0.0205 ± 0.14
AGUGAGCAAUAUUACGGAUU	-3.48 ± 0.26	-1.28 ± 0.21
GUCGAGCAAUAUUACGAGUU	-2.66 ± 0.18	-2.52 ± 0.28
GGUGAGCAAUAUUACGUCGC	-3.57 ± 0.49	
GUGUAGCAAUAUUACGUGCA	-2.55 ± 0.21	-1.11 ± 0.26
CGUGAGCAAUAUUACGUGCA	-1.36 ± 0.13	0.0971 ± 0.14

Sequence	self-splicing fitness (ln) (30 °C)	self-splicing fitness (ln) (37 °C)
CCGGAGCAAUAUUACGAGCC	-3.09 ± 0.31	-2.1 ± 0.42
GGUGAGCAAUAUUACGUCCU	-0.834 ± 0.23	-1.45 ± 0.22
CUCCAGCAAUAUUACGUGCG	-3.63 ± 0.27	-1.84 ± 0.18
CUUAAGCAAUAUUACGUGCC	-4.6 ± 0.38	-1.53 ± 0.18
UUUCAGCAAUAUUACGGCGC	-1.11 ± 0.11	-1.58 ± 0.16
UAGAAGCAAUAUUACGGGUG	-0.989 ± 0.057	-0.365 ± 0.078
GGUAAGCAAUAUUACGGCGU	0.139 ± 0.13	-0.0376 ± 0.15
CCAUAGCAAUAUUACGAUGC	-3.11 ± 0.17	-1.88 ± 0.17
CAGCAGCAAUAUUACGACUU	-0.431 ± 0.068	0.69 ± 0.083
GGUAAGCAAUAUUACGGCAU	-0.173 ± 0.078	0.827 ± 0.11
UGCCAGCAAUAUUACGUGCU	-3.14 ± 0.11	-1.48 ± 0.1
ACUAAGCAAUAUUACGGCAC	-0.673 ± 0.096	-1.92 ± 0.095
CAUGAGCAAUAUUACGCCGA	-2.14 ± 0.47	-2.48 ± 0.31
UCUGAGCAAUAUUACGGCAG	-1.8 ± 0.097	-0.992 ± 0.12
UCAAAGCAAUAUUACGCGGC	-3.92 ± 0.3	-2.59 ± 0.23
GCGGAGCAAUAUUACGACAG	-3.33 ± 0.5	-1.09 ± 0.45
ACUUAGCAAUAUUACGGUAG	-3.35 ± 0.23	-1.83 ± 0.23
ACCGAGCAAUAUUACGUCAG	-3.7 ± 0.16	-2.73 ± 0.17
AGCAAGCAAUAUUACGAGCC	-1.65 ± 0.37	
AAGAAGCAAUAUUACGACCU	0.116 ± 0.099	-0.338 ± 0.11
GGAUAGCAAUAUUACGCUCU	-1.63 ± 0.26	
ACAAAGCAAUAUUACGACAG	-1.34 ± 0.066	-0.8 ± 0.084
UGCCAGCAAUAUUACGAUAG	-2.17 ± 0.12	-1.09 ± 0.12
GUCGAGCAAUAUUACGUCGU	-0.515 ± 0.12	-0.592 ± 0.17
UUGCAGCAAUAUUACGCUGC	-3.93 ± 0.29	-2.97 ± 0.38
AAAAAGCAAUAUUACGGACG	-0.378 ± 0.064	0.25 ± 0.084

Sequence	self-splicing fitness (ln) (30 °C)	self-splicing fitness (ln) (37 °C)
UGCUAGCAAUAUUACGAUGA	-1 ± 0.1	-1.2 ± 0.09
CGUUAGCAAUAUUACGCUAG	-2.66 ± 0.17	-1.51 ± 0.25
GUCGAGCAAUAUUACGAGUC	-3.73 ± 0.25	-2.2 ± 0.18
ACAAAGCAAUAUUACGCACG	-1.96 ± 0.12	-0.724 ± 0.1
AGCUAGCAAUAUUACGUUUG	-4.09 ± 0.24	-0.747 ± 0.15
UCAGAGCAAUAUUACGUUGC		-1.48 ± 0.32
CGGGAGCAAUAUUACGAUGG	-2.44 ± 0.2	-0.953 ± 0.24
UAACAGCAAUAUUACGGGAU	-3.08 ± 0.15	-2.43 ± 0.16
AUUCAGCAAUAUUACGAAAA	0.178 ± 0.15	0.575 ± 0.17
CACCAGCAAUAUUACGUUUA	-3.33 ± 0.16	-2.47 ± 0.13
AGAAAGCAAUAUUACGCGAU	-3.37 ± 0.17	-1.63 ± 0.13
CUCGAGCAAUAUUACGUCUU	-4.4 ± 0.21	-3.37 ± 0.21
GCGAAGCAAUAUUACGCCCG	-2.36 ± 0.31	-1.68 ± 0.48
AAUUAGCAAUAUUACGUAUG	-1.04 ± 0.12	-1.13 ± 0.16
GUUGAGCAAUAUUACGGCGU	-1.02 ± 0.13	-0.302 ± 0.2
AGAAAGCAAUAUUACGGACU	-0.691 ± 0.079	0.112 ± 0.089
GAGAAGCAAUAUUACGGUAG	-3.75 ± 0.29	-2.68 ± 0.24
AGUGAGCAAUAUUACGUCUC		-2.46 ± 0.36
AAAUAGCAAUAUUACGUCCC	-0.4 ± 0.21	-1.33 ± 0.28
UCAAAGCAAUAUUACGAUUG	-2.46 ± 0.14	-0.73 ± 0.11
GGAAAGCAAUAUUACGAUUG	-3.56 ± 0.28	-1.82 ± 0.23
GCAUAGCAAUAUUACGUCUA	-0.451 ± 0.14	-0.993 ± 0.13
CGUUAGCAAUAUUACGACCU	-0.403 ± 0.2	-0.596 ± 0.18
AGCAAGCAAUAUUACGGGUG	-1.36 ± 0.056	-0.789 ± 0.076
CUUCAGCAAUAUUACGAACA	-0.812 ± 0.18	-1.3 ± 0.21
